Tests used:
[1] = tested on: HeLa Kyoto; experiment: solubility in G1/S (NP-40 vs SDS abundance) (log2 ratio); higher = more soluble; conditions: cell cycle stage: G1/S
[2] = tested on: HeLa Kyoto; experiment: melting temperature (median over replicates), in situ; higher = more thermally stable
[3] = tested on: HeLa Kyoto; experiment: solubility change mitosis vs G1/S (difference of NP-40 vs SDS log2 ratios) (log2 ratio difference); higher = more soluble in mitosis
[4] = tested on: HeLa Kyoto; experiment: thermal stability score vs G1/S (z-score of summed log2 fold changes over temperatures); higher = more thermally stable than in G1/S
[5] = cell cycle stage: early G1 (4.5 h after nocodazole release)
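Wherever melting temperature (median over replicates), in situ is given: HeLa Kyoto cells synchronized by double thymidine or nocodazole block, proteins quantified by TMT10plex mass spectrometry, three independent biological replicates.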
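Wherever solubility change mitosis vs G1/S (difference of NP-40 vs SDS log2 ratios) is given: synchronized HeLa Kyoto cells (double thymidine block for G1/S, nocodazole release for mitosis), protein amounts in NP-40 versus SDS lysates quantified by mass spectrometry, three biological replicates.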
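Wherever solubility in G1/S (NP-40 vs SDS abundance) is given: HeLa Kyoto cells arrested at G1/S by double thymidine block, proteins quantified by TMT10plex mass spectrometry in mild NP-40 versus SDS extracts, three biological replicates.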
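Wherever thermal stability score vs G1/S (z-score of summed log2 fold changes over temperatures) is given: synchronized HeLa Kyoto cells, proteins quantified by TMT10plex mass spectrometry, three biological replicates, mitosis taken 0.5 h after nocodazole release, G1/S directly after double thymidine block.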

Row | Sequence | solubility in G1/S (log2) [1] | melting temperature ([2]; cell cycle stage: G1/S) | melting temperature ([2]; cell cycle stage: mitosis) | solubility change mitosis (log2) [3] | thermal stability score [4, 5] | thermal stability score ([4]; cell cycle stage: mitosis)
1 | MSVRVARVAWVRGLGASYRRGASSFPVPPPGAQGVAELLRDATGAEEEAPWAATERRMPGQCSVLLFPGQGSQVVGMGRGLLNYPRVRELYAAARRVLGYDLLELSLHGPQETLDRTVHCQPAIFVASLAAVEKLHHLQPSVIENCVAAAGFSVGEFAALVFAGAMEFAEGLYAVKIRAEAMQEASEAVPSGMLSVLGQPQSKFNFACLEAREHCKSLGIENPVCEVSNYLFPDCRVISGHQEALRFLQKNSSKFHFRRTRMLPVSGAFHTRLMEPAVEPLTQALKAVDIKKPLVSVYSNVHAHRYRHPGHIHKLLAQQLVSPVKWEQTMHAIYERKKGRGFPQTFEVGPGRQLGAILKSCNMQAWKSYSAVDVLQTLEHVDLDPQEPPR [MT] | -0.124 | 59 °C | 56.6 °C | -0.162 | -1.31 | -2.45
2 | MDEQALLGLNPNADSDFRQRALAYFEQLKISPDAWQVCAEALAQRTYSDDHVKFFCFQVLEHQVKYKYSELTTVQQQLIRETLISWLQAQMLNPQPEKTFIRNKAAQVFALLFVTEYLTKWPKFFFDILSVVDLNPRGVDLYLRILMAIDSELVDRDVVHTSEEARRNTLIKDTMREQCIPNLVESWYQILQNYQFTNSEVTCQCLEVVGAYVSWIDLSLIANDRFINMLLGHMSIEVLREEACDCLFEVVNKGMDPVDKMKLVESLCQVLQSAGFFSIDQEEDVDFLARFSKLVNGMGQSLIVSWSKLIKNGDIKNAQEALQAIETKVALMLQLLIHEDDDISSNIIGFCYDYLHILKQLTVLSDQQKANVEAIMLAVMKKLTYDEEYNFENEGEDEAMFVEYRKQLKLLLDRLAQVSPELLLASVRRVFSSTLQNWQTTRFMEVEVAIRLLYMLAEALPVSHGAHFSGDVSKASALQDMMRTLVTSGVSSYQHTSVTLEFFETVVRYEKFFTVEPQHIPCVLMAFLDHRGLRHSSAKVRSRTAYLFSRFVKSLNKQMNPFIEDILNRIQDLLELSPPENGHQSLLSSDDQLFIYETAGVLIVNSEYPAERKQALMRNLLTPLMEKFKILLEKLMLAQDEERQASLADCLNHAVGFASRTSKAFSNKQTVKQCGCSEVYLDCLQTFLPALSCPLQKDILRSGVRTFLHRMIICLEEEVLPFIPSASEHMLKDCEAKDLQEFIPLINQITAKFKIQVSPFLQQMFMPLLHAIFEVLLRPAEENDQSAALEKQMLRRSYFAFLQTVTGSGMSEVIANQGAENVERVLVTVIQGAVEYPDPIAQKTCFIILSKLVELWGGKDGPVGFADFVYKHIVPACFLAPLKQTFDLADAQTVLALSECAVTLKTIHLKRGPECVQYLQQEYLPSLQVAPEIIQEFCQALQQPDAKVFKNYLKVFFQRAKP [XPOT] | -0.059 | 49.5 °C | 50.1 °C | -0.226 | 1.65 | 3.04
3 | MGEEDYYLELCERPVQFEKANPVNCVFFDEANKQVFAVRSGGATGVVVKGPDDRNPISFRMDDKGEVKCIKFSLENKILAVQRTSKTVDFCNFIPDNSQLEYTQECKTKNANILGFCWTSSTEIVFITDQGIEFYQVLPEKRSLKLLKSHNLNVNWYMYCPESAVILLSTTVLENVLQPFHFRAGTMSKLPKFEIELPAAPKSTKPSLSERDIAMATIYGQLYVLFLRHHSRTSNSTGAEVVLYHLPREGACKKMHILKLNRTGKFALNVVDNLVVVHHQDTETSVIFDIKLRGEFDGSVTFHHPVLPARSIQPYQIPITGPAAVTSQSPVPCKLYSSSWIVFQPDIIISASQGYLWNLQVKLEPIVNLLPDKGRLMDFLLQRKECKMVILSVCSQMLSESDRASLPVIATVFDKLNHEYKKYLDAEQSYAMAVEAGQSRSSPLLKRPVRTQAVLDQSDVYTHVLSAFVEKKEMPHKFVIAVLMEYIRSLNQFQIAVQHYLHELVIKTLVQHNLFYMLHQFLQYHVLSDSKPLACLLLSLESFYPPAHQLSLDMLKRLSTANDEIVEVLLSKHQVLAALRFIRGIGGHDNISARKFLDAAKQTEDNMLFYTIFRFFEQRNQRLRGSPNFTPGEHCEEHVAFFKQIFGDQALMRPTTF [C18ORF8] | -0.0478 | 51.1 °C | 50.8 °C | -0.121 | 0.23 | 0.326
4 | MELCGLGLPRPPMLLALLLATLLAAMLALLTQVALVVQVAEAARAPSVSAKPGPALWPLPLLVKMTPNLLHLAPENFYISHSPNSTAGPSCTLLEEAFRRYHGYIFGFYKWHHEPAEFQAKTQVQQLLVSITLQSECDAFPNISSDESYTLLVKEPVAVLKANRVWGALRGLETFSQLVYQDSYGTFTINESTIIDSPRFSHRGILIDTSRHYLPVKIILKTLDAMAFNKFNVLHWHIVDDQSFPYQSITFPELSNKGSYSLSHVYTPNDVRMVIEYARLRGIRVLPEFDTPGHTLSWGKGQKDLLTPCYSRQNKLDSFGPINPTLNTTYSFLTTFFKEISEVFPDQFIHLGGDEVEFKCWESNPKIQDFMRQKGFGTDFKKLESFYIQKVLDIIATINKGSIVWQEVFDDKAKLAPGTIVEVWKDSAYPEELSRVTASGFPVILSAPWYLDLISYGQDWRKYYKVEPLDFGGTQKQKQLFIGGEACLWGEYVDATNLTPRLWPRASAVGERLWSSKDVRDMDDAYDRLTRHRCRMVERGIAAQPLYAGYCNHENM [HEXB] | 0.38 | 56.7 °C | 58 °C | 0.0247 | -1.76 | -0.878
5 | MACLLETPIRMSVLSEVTASSRHYVDRLFDPDPQKVLQGVIDMKNAVIGNNKQKANLIVLGAVPRLLYLLQQETSSTELKTECAVVLGSLAMGTENNVKSLLDCHIIPALLQGLLSPDLKFIEACLRCLRTIFTSPVTPEELLYTDATVIPHLMALLSRSRYTQEYICQIFSHCCKGPDHQTILFNHGAVQNIAHLLTSLSYKVRMQALKCFSVLAFENPQVSMTLVNVLVDGELLPQIFVKMLQRDKPIEMQLTSAKCLTYMCRAGAIRTDDNCIVLKTLPCLVRMCSKERLLEERVEGAETLAYLIEPDVELQRIASITDHLIAMLADYFKYPSSVSAITDIKRLDHDLKHAHELRQAAFKLYASLGANDEDIRKKIIETENMMDRIVTGLSESSVKVRLAAVRCLHSLSRSVQQLRTSFQDHAVWKPLMKVLQNAPDEILVVASSMLCNLLLEFSPSKEPILESGAVELLCGLTQSENPALRVNGIWALMNMAFQAEQKIKADILRSLSTEQLFRLLSDSDLNVLMKTLGLLRNLLSTRPHIDKIMSTHGKQIMQAVTLILEGEHNIEVKEQTLCILANIADGTTAKDLIMTNDDILQKIKYYMGHSHVKLQLAAMFCISNLIWNEEEGSQERQDKLRDMGIVDILHKLSQSPDSNLCDKAKMALQQYLA [ARMC8] | -0.0698 | 51.1 °C | 51 °C | -0.195 | -0.497 | 0.122
6 | MATGLGEPVYGLSEDEGESRILRVKVVSGIDLAKKDIFGASDPYVKLSLYVADENRELALVQTKTIKKTLNPKWNEEFYFRVNPSNHRLLFEVFDENRLTRDDFLGQVDVPLSHLPTEDPTMERPYTFKDFLLRPRSHKSRVKGFLRLKMAYMPKNGGQDEENSDQRDDMEHGWEVVDSNDSASQHQEELPPPPLPPGWEEKVDNLGRTYYVNHNNRTTQWHRPSLMDVSSESDNNIRQINQEAAHRRFRSRRHISEDLEPEPSEGGDVPEPWETISEEVNIAGDSLGLALPPPPASPGSRTSPQELSEELSRRLQITPDSNGEQFSSLIQREPSSRLRSCSVTDAVAEQGHLPPPSAPAGRARSSTVTGGEEPTPSVAYVHTTPGLPSGWEERKDAKGRTYYVNHNNRTTTWTRPIMQLAEDGASGSATNSNNHLIEPQIRRPRSLSSPTVTLSAPLEGAKDSPVRRAVKDTLSNPQSPQPSPYNSPKPQHKVTQSFLPPGWEMRIAPNGRPFFIDHNTKTTTWEDPRLKFPVHMRSKTSLNPNDLGPLPPGWEERIHLDGRTFYIDHNSKITQWEDPRLQNPAITGPAVPYSREFKQKYDYFRKKLKKPADIPNRFEMKLHRNNIFEESYRRIMSVKRPDVLKARLWIEFESEKGLDYGGVAREWFFLLSKEMFNPYYGLFEYSATDNYTLQINPNSGLCNEDHLSYFTFIGRVAGLAVFHGKLLDGFFIRPFYKMMLGKQITLNDMESVDSEYYNSLKWILENDPTELDLMFCIDEENFGQTYQVDLKPNGSEIMVTNENKREYIDLVIQWRFVNRVQKQMNAFLEGFTELLPIDLIKIFDENELELLMCGLGDVDVNDWRQHSIYKNGYCPNHPVIQWFWKAVLLMDAEKRIRLLQFVTGTSRVPMNGFAELYGSNGPQLFTIEQWGSPEKLPRAHTCFNRLDLPPYETFEDLREKLLMAVENAQGFEGVD [NEDD4L] | -0.0714 | 50 °C | 49.6 °C | -0.189 | 0.949 | 2.33

Reference: the supplement of paper PMC5998384
